The target of assay [1] is T1, human CD20 (human, UniProt P11836 1-297).
T1 construct: whole, on cells
T1 sequence (looked up): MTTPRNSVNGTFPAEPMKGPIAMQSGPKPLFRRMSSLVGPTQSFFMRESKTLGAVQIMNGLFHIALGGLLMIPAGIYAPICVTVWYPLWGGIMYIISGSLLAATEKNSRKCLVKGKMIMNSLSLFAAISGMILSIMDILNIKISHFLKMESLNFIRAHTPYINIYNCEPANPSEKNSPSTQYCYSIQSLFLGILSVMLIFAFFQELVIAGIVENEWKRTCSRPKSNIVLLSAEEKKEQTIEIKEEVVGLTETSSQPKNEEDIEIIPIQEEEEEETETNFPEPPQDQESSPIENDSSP
Briefly: flow cytometry, AlexaFluor488-labelled TCB on CD20-expressing B cells among human PBMCs. As to the method: (§1) The crossreactivity of the anti-CD3/anti-CD20 TCB antibody shown as molecule “B” above was evaluated by assessing binding to human and cynomolgus monkey CD20-expressing B cells and CD3-expressing CD4 and CD8 T cells. Briefly, heparinized human and cynomolgus monkey blood from healthy donors was used to isolate PBMCs by density centrifugation. Isolated PBMCs were counted, checked for viability and resuspended at 4×10⁶ cells/ml in FACS buffer (100 μl PBS 0.1% BSA). 100 μl of cell suspension (containing 0.4×10⁶ cells) were plated into 96-well_U-bottom plate and centrifuged (420×g, 4 min). After removal of the supernatants, PBMCs were incubated for 30 min at 4° C. with increasing concentrations of the CD20 TCB-AlexaFlour488 (200 pM-200 nM), washed twice with cold PBS 0.1% BSA, re-incubated for further 30 min at 4° C. with human/cynomolgus cross-reactive antibodies: anti-CD19 (in house, clone 8B8)-AlexaFluor647, anti-CD4 (BD, #552838, clone L200)-PerCPCy5.5 and anti-CD8 (BD, #555367, clone RPA-T8)-PE.

The target of assay [2] is T1, human CD20. The assay can be described thus: flow cytometry on CD20-expressing WSU DLCL2 cells, PE anti-human Fc secondary antibody. As to the method:
(§2) The binding of the anti-CD3/anti-CD20 TCB antibody shown as molecule “B” above was tested on human CD20-expressing Diffuse Large-Cell B Cell Lymphoma (DLBCL) cell line (WSU DLCL2, 0.5-1×10⁶ CD20 binding sites) and CD3-expressing immortalized T lymphocyte line (Jurkat). Briefly, cells were harvested, counted, checked for viability and resuspended at 1.5×10⁶ cells/ml in FACS buffer (PBS 0.1% BSA).
(§3) Binding curves and the EC50 values related to binding were calculated using GraphPadPrism5.

The target in assay [3] is T2, cynomolgus monkey CD20 (cynomolgus monkey, UniProt M4ZHZ6 1-297).
T2 construct: whole, on cells; also called cynomolgus CD20
T2 sequence: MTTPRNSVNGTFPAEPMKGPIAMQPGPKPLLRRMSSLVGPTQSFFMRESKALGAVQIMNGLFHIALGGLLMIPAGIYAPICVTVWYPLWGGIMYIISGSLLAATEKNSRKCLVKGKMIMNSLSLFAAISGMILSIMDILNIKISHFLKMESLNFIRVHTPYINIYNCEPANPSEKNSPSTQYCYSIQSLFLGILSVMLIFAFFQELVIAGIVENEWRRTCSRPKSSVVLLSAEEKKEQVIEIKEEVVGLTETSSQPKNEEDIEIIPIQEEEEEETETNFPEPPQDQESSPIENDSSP
The assay can be described thus: flow cytometry, AlexaFluor488-labelled TCB on CD20-expressing B cells among cynomolgus monkey PBMCs. Here is the method:
as §1

Assay [4] has as its target T1, human CD20. The assay can be described thus: cell-based or functional assay.
In assay [5] the target is T1, human CD20. The assay can be described thus: cell-based or functional assay. The source holds these as a separate data set.
The target in assay [6] is T1, human CD20. The assay can be described thus: cell-based or functional assay. The source holds these as a separate data set.
The target in assay [7] is T1, human CD20. Briefly: cell-based or functional assay. The source holds these as a separate data set.
Assay [8] addresses T3, human CD3 (human, UniProt P07766 23-207).
T3 construct: In the assays it is the native CD3 complex on Jurkat or Jurkat-NFAT cells; also called CD3 epsilon
The assay can be described thus: flow cytometry on CD3-expressing Jurkat cells, PE anti-human Fc secondary antibody. As to the method:
as §2, §3

The target of assay [9] is T3, human CD3. The assay can be described thus: cell-based or functional assay.
The target of assay [10] is T3, human CD3. The assay can be described thus: flow cytometry on Jurkat-NFAT cells.
Assay [11] has as its target T4, human MCSP (melanoma-associated chondroitin sulfate proteoglycan, chondroitin sulfate proteoglycan 4) (human, UniProt Q6UVK1 30-2322).
T4 construct: whole, on cells; also called hMCSP
The assay can be described thus: flow cytometry on MCSP-expressing MV-3 cells.

Assay [12] has as its target T4, human MCSP (melanoma-associated …). The assay can be described thus: cell-based or functional assay.

T4 sequence (Q6UVK1 30-2322): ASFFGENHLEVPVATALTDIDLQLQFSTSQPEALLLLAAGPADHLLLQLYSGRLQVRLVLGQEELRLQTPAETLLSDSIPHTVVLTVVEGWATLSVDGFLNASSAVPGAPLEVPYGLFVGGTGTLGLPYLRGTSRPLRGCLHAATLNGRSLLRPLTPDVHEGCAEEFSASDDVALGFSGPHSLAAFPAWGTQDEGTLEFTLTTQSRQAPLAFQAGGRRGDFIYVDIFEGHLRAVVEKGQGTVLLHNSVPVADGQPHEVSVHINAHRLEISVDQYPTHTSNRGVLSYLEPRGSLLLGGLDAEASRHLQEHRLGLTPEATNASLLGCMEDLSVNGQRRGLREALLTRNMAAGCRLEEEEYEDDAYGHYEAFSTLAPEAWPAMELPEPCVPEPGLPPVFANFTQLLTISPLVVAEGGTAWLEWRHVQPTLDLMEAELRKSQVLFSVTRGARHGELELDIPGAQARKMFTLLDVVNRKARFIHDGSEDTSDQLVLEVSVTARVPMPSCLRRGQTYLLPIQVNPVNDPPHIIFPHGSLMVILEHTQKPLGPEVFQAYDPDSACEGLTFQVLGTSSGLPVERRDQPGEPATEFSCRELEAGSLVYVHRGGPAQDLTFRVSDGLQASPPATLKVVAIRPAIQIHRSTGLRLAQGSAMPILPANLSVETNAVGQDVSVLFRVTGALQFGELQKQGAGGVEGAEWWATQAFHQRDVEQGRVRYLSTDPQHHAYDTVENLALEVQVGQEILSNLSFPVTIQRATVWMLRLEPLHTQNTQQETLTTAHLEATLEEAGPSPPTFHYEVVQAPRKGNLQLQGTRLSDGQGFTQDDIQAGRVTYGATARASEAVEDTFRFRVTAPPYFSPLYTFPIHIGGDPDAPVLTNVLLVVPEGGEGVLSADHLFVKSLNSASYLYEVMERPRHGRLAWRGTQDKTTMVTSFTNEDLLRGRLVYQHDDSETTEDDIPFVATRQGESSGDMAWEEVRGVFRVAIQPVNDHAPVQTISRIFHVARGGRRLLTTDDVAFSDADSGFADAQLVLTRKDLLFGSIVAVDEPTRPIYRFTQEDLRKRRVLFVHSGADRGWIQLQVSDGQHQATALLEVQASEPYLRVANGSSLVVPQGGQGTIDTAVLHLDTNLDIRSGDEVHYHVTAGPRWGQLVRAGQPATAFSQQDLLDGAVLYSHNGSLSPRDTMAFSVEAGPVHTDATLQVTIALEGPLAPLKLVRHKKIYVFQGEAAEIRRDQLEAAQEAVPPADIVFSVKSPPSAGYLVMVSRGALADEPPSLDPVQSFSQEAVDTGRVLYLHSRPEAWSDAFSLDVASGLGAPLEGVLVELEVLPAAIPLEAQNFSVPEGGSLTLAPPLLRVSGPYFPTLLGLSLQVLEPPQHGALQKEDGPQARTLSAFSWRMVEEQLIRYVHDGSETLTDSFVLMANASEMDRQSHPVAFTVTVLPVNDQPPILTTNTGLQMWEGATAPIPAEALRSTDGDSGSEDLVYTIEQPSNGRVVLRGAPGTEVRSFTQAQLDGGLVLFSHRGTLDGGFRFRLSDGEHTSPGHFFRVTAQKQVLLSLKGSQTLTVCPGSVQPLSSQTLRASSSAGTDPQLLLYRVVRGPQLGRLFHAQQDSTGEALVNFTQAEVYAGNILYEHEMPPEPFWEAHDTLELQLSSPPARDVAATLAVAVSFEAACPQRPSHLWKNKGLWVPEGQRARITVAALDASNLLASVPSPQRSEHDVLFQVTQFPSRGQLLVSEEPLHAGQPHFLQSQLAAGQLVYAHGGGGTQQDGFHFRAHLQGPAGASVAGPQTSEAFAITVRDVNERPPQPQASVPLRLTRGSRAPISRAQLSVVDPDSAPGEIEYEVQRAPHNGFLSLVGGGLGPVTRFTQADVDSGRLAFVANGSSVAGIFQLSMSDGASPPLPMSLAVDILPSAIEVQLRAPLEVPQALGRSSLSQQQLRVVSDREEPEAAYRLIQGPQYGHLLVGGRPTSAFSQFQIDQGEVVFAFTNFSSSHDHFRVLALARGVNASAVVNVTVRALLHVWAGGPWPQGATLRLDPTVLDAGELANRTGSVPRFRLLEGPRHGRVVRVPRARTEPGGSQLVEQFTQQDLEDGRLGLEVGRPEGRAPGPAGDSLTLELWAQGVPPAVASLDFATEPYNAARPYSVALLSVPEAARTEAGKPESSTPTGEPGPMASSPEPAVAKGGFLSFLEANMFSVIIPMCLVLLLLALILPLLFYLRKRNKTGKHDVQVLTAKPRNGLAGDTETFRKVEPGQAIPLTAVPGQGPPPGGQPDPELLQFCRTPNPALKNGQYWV

B1: anti-CD20/anti-CD3 TCB molecule B: "2+1 IgG CrossFab, inverted" with charge modifications (VH/VL exchange in CD3 binder, charge modification in CD20 binders) (bispecific antibody)
heavy 1: not shown
heavy 2: QVQLVQSGAEVKKPGSSVKVSCKASGYAFSYSWINWVRQAPGQGLEWMGRIFPGDGDTDYNGKFKGRVTITADKSTSTAYMELSSLRSEDTAVYYCARNVFDGYWLVYWGQGTLVTVSSASTKGPSVFPLAPSSKSTSGGTAALGCLVEDYFPEPVTVSWNSGALTSGVHTFPAVLQSSGLYSLSSVVTVPSSSLGTQTYICNVNHKPSNTKVDEKVEPKSCDKTHTCPPCPAPEAAGGPSVFLFPPKPKDTLMISRTPEVTCVVVDVSHEDPEVKFNWYVDGVEVHNAKTKPREEQYNSTYRVVSVLTVLHQDWLNGKEYKCKVSNKALGAPIEKTISKAKGQPREPQVCTLPPSRDELTKNQVSLSCAVKGFYPSDIAVEWESNGQPENNYKTTPPVLDSDGSFFLVSKLTVDKSRWQQGNVFSCSVMHEALHNHYTQKSLSLSP
light 1: DIVMTQTPLSLPVTPGEPASISCRSSKSLLHSNGITYLYWYLQKPGQSPQLLIYQMSNLVSGVPDRFSGSGSGTDFTLKISRVEAEDVGVYYCAQNLELPYTFGGGTKVEIKRTVAAPSVFIFPPSDRKLKSGTASVVCLLNNFYPREAKVQWKVDNALQSGNSQESVTEQDSKDSTYSLSSTLTLSKADYEKHKVYACEVTHQGLSSPVTKSFNRGEC
light 2: EVQLLESGGGLVQPGGSLRLSCAASGFTFSTYAMNWVRQAPGKGLEWVSRIRSKYNNYATYYADSVKGRFTISRDDSKNTLYLQMNSLRAEDTAVYYCVRHGNFGNSYVSWFAYWGQGTLVTVSSASVAAPSVFIFPPSDEQLKSGTASVVCLLNNFYPREAKVQWKVDNALQSGNSQESVTEQDSKDSTYSLSSTLTLSKADYEKHKVYACEVTHQGLSSPVTKSFNRGEC
notes: Bivalent for CD20, monovalent for CD3; also called CD20 TCB; CD20 TCB_2+1_with charges, inverted
In [1], B1 gave a concentration for a half-maximal effect (EC50) of 4800 pM. For the same molecule, the response in assay [2] was half-maximal at 980 pM (EC50). This molecule also returned an EC50 in assay [3] of 3300 pM. In addition, the “EC50 24 h of B cell depletion in normal human whole blood” value in assay [4] was determined as 13.2 pM. In assay [5], the “EC50 of tumor cell lysis (LDH release), Z138 cells + human PBMCs, 21-24 h, panel A” value turned out to be 2.18 pM and the “EC50 of tumor cell lysis (LDH release), Z138 cells + human PBMCs, 21-24 h, panel B” value is 0.96 pM. Also, in [6], the “EC50 24 h of CD4 T cell activation, Z138 cells (average of 3 donors)” value worked out at 1.2 pM; the “EC50 24 h of CD8 T cell activation, Z138 cells (average of 3 donors)” value was 2.2 pM; the “EC50 24 h of tumor lysis, Z138 cells (average of 3 donors)” value was determined as 1.6 pM. Further, in [7], the “EC50 24 h of tumor lysis, Ocly-18 cells” value came to 0.3 pM; the “EC50 24 h of tumor lysis, SU-DHL-5 cells” value was determined as 1.2 pM; the “EC50 24 h of tumor lysis, SU-DHL-8 cells” value was found to be 0.5 pM; the “EC50 24 h of tumor lysis, U2932 cells” value is 0.9 pM. Besides, the EC50 in [8] was about 12500 pM. For the same molecule, in assay [9], the “EC50 of CD3 activation, Jurkat-NFAT reporter cells co-cultured with Z138 cells (luminescence, 6 h)” value is 29 pM.

B2: anti-MCSP/anti-CD3 "(Fab)2-CrossFab" molecule with charge modifications in the MCSP binders ((Fab)2-XFab-LC007cv) (bispecific antibody)
chain 1: EVQLQESGPGLVKPSQSLSLTCSVTGYSITSGYYWNWIRQFPGNKLEWMGYITYDGSNNYNPSLKNRISITRDTSKNQFFLKLNSVTTEDTATYYCADFDYWGQGTTLTVSSASTKGPSVFPLAPSSKSTSGGTAALGCLVEDYFPEPVTVSWNSGALTSGVHTFPAVLQSSGLYSLSSVVTVPSSSLGTQTYICNVNHKPSNTKVDEKVEPKSCDGGGGSGGGGSEVQLQESGPGLVKPSQSLSLTCSVTGYSITSGYYWNWIRQFPGNKLEWMGYITYDGSNNYNPSLKNRISITRDTSKNQFFLKLNSVTTEDTATYYCADFDYWGQGTTLTVSSASTKGPSVFPLAPSSKSTSGGTAALGCLVEDYFPEPVTVSWNSGALTSGVHTFPAVLQSSGLYSLSSVVTVPSSSLGTQTYICNVNHKPSNTKVDEKVEPKSCDGGGGSGGGGSDIQMTQSPSSLSASVGDRVTITCRASQDIRNYLNWYQQKPGKAPKLLIYYTSRLESGVPSRFSGSGSGTDYTLTISSLQPEDFATYYCQQGNTLPWTFGQGTKVEIKSSASTKGPSVFPLAPSSKSTSGGTAALGCLVKDYFPEPVTVSWNSGALTSGVHTFPAVLQSSGLYSLSSVVTVPSSSLGTQTYICNVNHKPSNTKVDKKVEPKSC
chain 2: EVQLVESGGGLVQPGGSLRLSCAASGYSFTGYTMNWVRQAPGKGLEWVALINPYKGVSTYNQKFKDRFTISVDKSKNTAYLQMNSLRAEDTAVYYCARSGYYGDSDWYFDVWGQGTLVTVSSASVAAPSVFIFPPSDEQLKSGTASVVCLLNNFYPREAKVQWKVDNALQSGNSQESVTEQDSKDSTYSLSSTLTLSKADYEKHKVYACEVTHQGLSSPVTKSFNRGEC
chain 3: DIVLTQSPSSLSASLGDRVTISCSASQGIRNYLNWYQQRPDGTVKLLIYYTSSLHSGVPSRFSGSGSGTDYSLTISNLEPEDIATYYCQQYSKLPWTFGGGTKLEIKRTVAAPSVFIFPPSDRKLKSGTASVVCLLNNFYPREAKVQWKVDNALQSGNSQESVTEQDSKDSTYSLSSTLTLSKADYEKHKVYACEVTHQGLSSPVTKSFNRGEC
notes: The chains are one heavy chain, the anti-MCSP Fab light chain (twice); No Fc domain
In the case of B2, the binding result in assay [10] is listed as “binds”. Besides, the EC50 in [11] was determined as 2300 pM. Besides, in assay [12], the “EC50 of tumor cell lysis (LDH release), MV-3 cells + human PBMCs, 24 h” value was 2.8 pM and the “EC50 of tumor cell lysis (LDH release), MV-3 cells + human PBMCs, 48 h” value is 8.6 pM.

The values above are taken from US20230287118A1 (published 2023).
